The target in one assay is T1, IL-13 (UniProt P35225 35-146, limits assumed).
T1 construct: also called IL-13 cytokine
Nature of the assay: competition ELISA: IL-13 captured on an anti-Flag coated plate, constant amounts of IL-13 and biotinylated IL-13Rα2-Fc (the competitor), detected with streptavidin-HRP. As for the experimental part:
In order to assess whether ch07 and ch08 can neutralize IL-13 function, a competition ELISA was performed. An anti-Flag Ab was coated onto 96-well plates and incubated overnight at 4° C. Plates were then blocked and washed following standard ELISA protocol. […] 100 ul of the complex was added to the ELISA plate and incubated for 1 hour at room temperature. The amount of biotin-IL-13-Rα2 bound was detected by HRP conjugated streptavidin at 1:5000 for 1 hour.
In general terms: In an ELISA, binding on a coated surface is turned into a signal by an enzyme label.

Assay [1] deals with T2, recombinant human IL-13 receptor alpha 2 (hIL-13-Rα2) (human, UniProt Q14627 27-343).
T2 construct: Recombinant soluble antigen coated on ELISA plates or used in Biacore; also called rec hIL-13Rα2; rhIL-13Rα2
T2 sequence (looked up): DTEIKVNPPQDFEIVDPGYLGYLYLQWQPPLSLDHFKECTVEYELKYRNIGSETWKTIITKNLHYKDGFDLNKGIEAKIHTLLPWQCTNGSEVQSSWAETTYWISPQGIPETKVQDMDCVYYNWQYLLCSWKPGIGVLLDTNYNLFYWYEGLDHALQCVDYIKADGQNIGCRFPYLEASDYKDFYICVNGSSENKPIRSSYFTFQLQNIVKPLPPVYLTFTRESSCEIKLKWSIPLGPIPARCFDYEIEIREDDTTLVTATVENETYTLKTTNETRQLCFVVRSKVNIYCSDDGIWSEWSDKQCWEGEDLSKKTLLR
The assay is described as follows: SPR Biacore T100, pH 6.0. As for the experimental part: (§1) To assess the binding kinetics of the ch07 and ch08 antibodies, SPR (Surface Plasmon Resonance) experiments were conducted on a Biacore® T100 or T200 instrument using a Biacore® human Fab Capture Kit (GE Healthcare). All data was analyzed using the Biacore® T100 evaluation software version 2.0 with a 1:1 Langmuir binding model.

For assay [2], the target named is T2, recombinant human IL-13 receptor alpha …. Nature of the assay: SPR Biacore T100, pH 7.4. The protocol: as §1
For assay [3] the target is unchanged. The assay is described as follows: direct ELISA on coated recombinant hIL-13-Rα2. The protocol:
Humanized hu08 binding to recombinant hIL-13-Rα2 was evaluated by a standard direct ELISA. Recombinant hIL-13-Rα2 was coated onto a 96-well plate. Serially diluted chimeric antibodies or humanized antibodies in combinations of heavy and light chains of versions 1.0 and 1.1 e.g. hu08 v1.0 HC/1.0 LC, hu08 v1.0 HC/v1.1 LC, hu08 v1.1 HC/v1.0 LC, and hu08 v1.1 HC/v1.1 LC, were added to the plate and incubated at room temperature for 1-2 hours. The binding was detected by HRP conjugated goat anti-human Ig Kappa.

Assay [4] shares this target. Nature of the assay: standard ELISA on hIL-13-Rα2 (given as ED50).
The target is the same in assay [5]. The assay is described as follows: competition ELISA on hIL-13-Rα2, competitor biotinylated ch08. The protocol:
The binding properties of the cysteine mutants to hIL-13-Rα2 were evaluated by a standard ELISA and a competition ELISA. […] This conclusion was confirmed by a competition ELISA with biotinylated ch08.

Assay [6] has as its target T3, cynomolgus monkey IL-13-Rα2 ECD/TM domain with C-terminal Flag tag, on transfected HEK293 cells (cynomolgus monkey, UniProt Q14627 27-363 (human entry)).
T3 construct: also called cyno-IL-13-Rα2; cyno IL-13Rα2; not shown: Flag tag at the C-terminal end
T3 chain: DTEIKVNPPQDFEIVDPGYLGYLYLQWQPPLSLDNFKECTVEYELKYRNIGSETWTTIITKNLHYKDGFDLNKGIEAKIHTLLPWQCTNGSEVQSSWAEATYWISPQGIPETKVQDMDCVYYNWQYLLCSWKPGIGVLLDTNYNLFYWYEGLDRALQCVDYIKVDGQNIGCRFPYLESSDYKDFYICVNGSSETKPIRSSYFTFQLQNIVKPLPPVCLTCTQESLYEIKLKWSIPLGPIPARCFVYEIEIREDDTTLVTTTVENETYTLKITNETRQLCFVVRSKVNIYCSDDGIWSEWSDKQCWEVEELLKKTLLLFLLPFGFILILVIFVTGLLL
The assay is described as follows: FACS on HEK293 cells transfected with cyno-IL-13-Rα2 (given as ED50). The protocol: The ECD/TM domain of cyno IL-13-Rα2 fused with Flag tag at the C-terminal end was cloned into the pSMED2 expression vector. HEK293 suspension cells were transiently transfected with cyno-IL-13-Rα2 containing plasmid and pSMED2 vector (as a mock transfection). The cells were harvested 72 hours later and subjected to FACS analysis. 4 antibodies including ch07, ch08, hu08v1.0/1.0 and hu08v1.1/1.1 were tested. The binding on the cell surface cyno-IL-13-Rα2 was detected with R-Phycoerythrin-labeled goat anti-human or mouse IgG.

Assay [7] concerns the target T2, recombinant human IL-13 receptor alpha …. The assay is described as follows: SPR Biacore T100, pH 7.4 (column head prints nM; kd/ka gives M); pH 7.4. As for the experimental part: as §1
In general terms: SPR reads the build-up and loss of mass on a sensor chip optically.

Assay [8] shares this target. Nature of the assay: competition ELISA on coated recombinant hIL-13-Rα2, competitor biotin-ch08. The protocol:
A competition ELISA was performed to assess whether hu08 1.0 and hu08 v1.1 compete with ch08 for IL-13-Rα2 binding. Recombinant hIL-13-Rα2 was coated onto 96-well plates at 50 ul of […] in PBS overnight at 4° C. Plates were then blocked and washed following standard ELISA protocol. A 3-fold serially diluted ch08, hu08 1.0 and hu08 v1.1, and negative control ch07 (2× final concentration) were mixed with biotinylated ch08 (2×EC₅₀). 50 μl of the antibody and biotin-ch08 mixture were added to the plate and incubated for 1 hour at room temperature. The amount of biotin-ch08 bound was detected by HRP conjugated streptavidin.

T1 sequence (P35225 35-146 limits assumed): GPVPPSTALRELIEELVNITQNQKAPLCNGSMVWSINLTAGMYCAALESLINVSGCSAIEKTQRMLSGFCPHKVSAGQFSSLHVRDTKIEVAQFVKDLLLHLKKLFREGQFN

B1: naked IL-13Rα2 (positive control competitor) (receptor, not shown: a dimerising Fc or GST; large carriers; small tags and cut ends)
chain: T2 sequence (looked up)
With B1, in the assay with IL-13, the “IC50 (read off the curve)” value is approximately 0.1 nM.

B2: humanized antibody hu08 v1.0 HC/v1.0 LC (antibody, IgG1)
heavy: not shown
light: DIQMTQSPSSLSASVGDRVTITCKASQDVGTAVAWYQQKPGKAPKLLIYSASYRSTGVPSRFSGSGSGTDFTLTISSLQPEDFATYYCQHHYSAPWTFGGGTKVEIKRTVAAPSVFIFPPSDEQLKSGTASVVCLLNNFYPREAKVQWKVDNALQSGNSQESVTEQDSKDSTYSLSSTLTLSKADYEKHKVYACEVTHQGLSSPVTKSFNRGEC
notes: Humanized IgG1/kappa; also called hu08 v1.0/1.0; hu08v1.0/1.0
A word on the koff: it is the first-order rate constant of dissociation. The term kon denotes the rate constant with which the complex forms. One may read the EC50 as the concentration that produces a half-maximal response. As usually defined, the IC50 is the concentration that gives 50% inhibition. The term Kd denotes a measure of binding affinity in units of concentration. Turning to B2, the koff in [1] came to 0.000234 s⁻¹; in [2] it was 0.000246 s⁻¹. In addition, the kon in [1] was found to be 52900 M⁻¹ s⁻¹; in assay [2], 97500 M⁻¹ s⁻¹. In addition, the EC50 is 0.175 nM in assay [3], 0.11 nM in assay [4] and 1.96 nM in assay [6]. Also, the half-inhibitory concentration (IC50) in assay [5] was found to be 2.01 nM; in [8], 2.12 nM. Moreover, the Kd in assay [7] was determined as 2.52 nM.
